From patent US8835467B2, “SIR2 regulation” (Albert Einstein College of Medicine of Yeshiva University, priority 2003, dated 2014)

Substrate: NC(=O)c1cccnc1
Assay: purified protein, by the assay type
Assay type: biochemical
Conditions: other: mouse enzyme; saturating NAD+ and peptide; pH 7.8
Experimental: After 2 hours, aliquots of 10 μL removed at 0, 30, 60, 90 and 120 min. Each aliquot was combined with 50 μL 50 mM ammonium acetate pH 5.0 to quench and assayed by HPLC for deacetylation products and NAD^+. The chromatograms (260 nm) were obtained using 50 mM ammonium acetate pH 5.0 as eluant on a semi-preparative Waters C-18 column (2.0 mL/min flow rate). Peaks for ADPR and 3′-O-Acetyl-ADPR were quantified by integration. The peak for NAD^+ was collected and radiation counted.

B1: Mouse SIR2 enzyme (SIR2α) (Mus musculus) (protein)
chain: MADEVALALQAAGSPSAAAAMEAASQPADEPLRKRPRRDGPGLGRSPGEPSAAVAPAAAGCEAASAAAPAALWREAAGAAASAEREAPATAVAGDGDNGSGLRREPRAADDFDDDEGEEEDEAAAAAAAAAIGYRDNLLLTDGLLTNGFHSCESDDDDRTSHASSSDWTPRPRIGPYTFVQQHLMIGTDPRTILKDLLPETIPPPELDDMTLWQIVINILSEPPKRKKRKDINTIEDAVKLLQECKKIIVLTGAGVSVSCGIPDFRSRDGIYARLAVDFPDLPDPQAMFDIEYFRKDPRPFFKFAKEIYPGQFQPSLCHKFIALSDKEGKLLRNYTQNIDTLEQVAGIQRILQCHGSFATASCLICKYKVDCEAVRGDIFNQVVPRCPRCPADEPLAIMKPEIVFFGENLPEQFHRAMKYDKDEVDLLIVIGSSLKVRPVALIPSSIPHEVPQILINREPLPHLHFDVELLGDCDVIINELCHRLGGEYAKLCCNPVKLSEITEKPPRPQKELVHLSELPPTPLHISEDSSSPERTVPQDSSVIATLVDQATNNNVNDLEVSESSCVEEKPQEVQTSRNVENINVENPDFKAVGSSTADKNERTSVAETVRKCWPNRLAKEQISKRLEGNQYLFVPPNRYIFHGAEVYSDSEDDVLSSSSCGSNSDSGTCQSPSLEEPLEDESEIEEFYNGLEDDTERPECAGGSGFGADGGDQEVVNEAIATRQELTDVNYPSDKS
notes: purchased Upstate Group
Km: 127 µM
